Measured values from patent US20210198368A1 (Novartis, published 2021).

Assays:
human CLL-1 Fc = target: T1, human CLL-1 Fc (human, UniProt Q5QGZ9 65-265, limits assumed); assay: SPR (Biacore T200), human CLL-1 Fc captured on an anti-Fc CM5 chip, scFv as analyte, 1:1 binding fit
T1 construct: Captured at 120 RU on an anti-Fc CM5 chip for Biacore; not shown: Fc part of the fusion (captured by an anti-Fc / anti-huFc antibody)
T1 sequence (looked up): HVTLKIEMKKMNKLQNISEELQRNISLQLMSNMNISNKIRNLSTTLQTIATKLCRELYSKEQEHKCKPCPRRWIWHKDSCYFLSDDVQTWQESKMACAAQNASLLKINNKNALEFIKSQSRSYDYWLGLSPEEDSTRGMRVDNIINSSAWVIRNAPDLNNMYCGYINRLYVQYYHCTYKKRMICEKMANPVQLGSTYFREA
Description: Next, the affinity for human CLL-1 of a representative number of anti-CLL-1 scFvs was tested by Biacore. Briefly, anti-Fc antibody (Jackson ImmunoReasearch, catalog #109-005-098) was immobilized to a CM5 sensor chip via amine coupling, and human CLL-1 Fc was then captured at a density of 120 RU. ScFv samples were serial diluted 3-fold and injected over the chip at a constant flow rate. Association and dissociation rates of the protein complex were monitored for 270 s and 400 s, respectively. Double referencing was performed against an anti-huFc coated flow cell and a buffer blank and the data was fit using a 1:1 Langmuir or steady state affinity model with the Biacore T200 evaluation software. Binding of clones CLL-1-6, CLL-1-8, CLL-1-9, CLL-1-10, and CLL1-13 to human CLL-1 was confirmed.

human CLL-1 = target: T2, human CLL-1 (human, UniProt Q5QGZ9 65-265, limits assumed); assay: ELISA and/or FACS of phage clones after panning on immobilized CLL-1
T2 construct: The construct is not described; also called C-type lectin-like molecule-1; MICL
T2 sequence (looked up): T1 sequence (looked up)

[1] = target: T3, human CLL1 expressed on cancer cell lines HL60 and U937 (human, UniProt Q5QGZ9 1-265); assay: cell-based or functional assay
T3 sequence (looked up): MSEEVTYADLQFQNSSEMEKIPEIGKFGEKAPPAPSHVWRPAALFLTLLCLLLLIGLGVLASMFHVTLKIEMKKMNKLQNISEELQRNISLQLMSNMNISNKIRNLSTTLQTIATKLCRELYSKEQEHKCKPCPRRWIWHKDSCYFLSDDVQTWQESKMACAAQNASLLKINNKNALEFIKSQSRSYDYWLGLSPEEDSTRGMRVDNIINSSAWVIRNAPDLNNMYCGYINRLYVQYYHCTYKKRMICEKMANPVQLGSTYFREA

B1: CLL-1-13 (scFv)
scFv: QVQLVQSGAEVKKSGASVKVSCKASGYPFTGYYIQWVRQAPGQGLEWMGWIDPNSGNTGYAQKFQGRVTMTRNTSISTAYMELSSLRSEDTAVYYCASDSYGYYYGMDVWGQGTLVTVSSGGGGSGGGGSGGGGSGGGGSDIQMTQSPSSLSASVGDRVTFTCRASQGISSALAWYQQKPGKPPKLLIYDASSLESGVPSRFSGSGSGTDFTLTISSLQPEDFATYYCQQFNNYPLTFGGGTKVEIK
notes: Soluble scFv from HEK293F cells, purified on Ni-NTA; a tag is implied but not described; also called 146264
For B1, the Kd (human CLL-1 Fc) was 46.1 nM, the koff (human CLL-1 Fc) was 0.00119 s⁻¹ and the kon (human CLL-1 Fc) was 25700 M⁻¹ s⁻¹.

B2: CLL-1-2 (scFv)
scFv: EVQLVESGGGVVQPGGSLRLSCAASGFTFDDYAMHWVRQAPGKGLEWVSLISGDGGSTYYADSVKGRFTISRDNSKNTLYLQMNSLRVEDTAVYYCARVFDSYYMDVWGKGTTVTVSSGGGGSGGGGSGSGGSEIVLTQSPLSLPVTPGQPASISCRSSQSLVYTDGNTYLNWFQQRPGQSPRRLIYKVSNRDSGVPDRFSGSGSDTDFTLKISRVEAEDVGIYYCMQGTHWSFTFGQGTRLEIK
notes: Human scFv from phage display; also called 139116
B2: binds (human CLL-1).

B3: CLL-1-10 (scFv)
scFv: QVQLVQSGGGLVQPGGSLRLSCAASGFTFSSYSMNWVRQAPGKGLEWVSYISSSSSTIYYADSVKGRFTISRDNAKNSLYLQMNSLRAEDTAVYYCARDLSVRAIDAFDIWGQGTMVTVSSGGGGSGGGGSGGGGSGGGGSDIVLTQSPSSLSASVGDRVTITCQASQDISNYLNWYQQKPGKAPKLLIYDASNLETGVPSRFSGSGSGTDFTFTISSLQPEDFATYYCQQAYSTPFTFGPGTKVEIK
notes: Soluble scFv from HEK293F cells, purified on Ni-NTA; a tag is implied but not described; also called 146261
B3 gave a Kd (human CLL-1 Fc) of 15 nM, a koff (human CLL-1 Fc) of 0.00214 s⁻¹ and a kon (human CLL-1 Fc) of 142000 M⁻¹ s⁻¹.

B4: CD3 × CLL1_12 (bispecific antibody)
chain 1: QVQLVQSGGGVVQPGRSLRLSCKASGYTFTRYTMHWVRQAPGKGLEWIGYINPSRGYTNYNQKVKDRFTISRDNSKNTAFLQMDSLRPEDTGVYFCARYYDDHYSLDYWGQGTPVTVSSGGGGSGGGKSKKGGSGGGGSDIQMTQSPSSLSASVGDRVTITCSASSSVSYMNWYQQTPGKAPKRWIYDTSKLASGVPSRFSGSGSGTDYTFTISSLQPEDIATYYCQQWSSNPFTFGQGTKLQITGGGGSDKTHTCPPCPAPELLGGPSVFLFPPKPKDTLMISRTPEVTCVVVAVSHEDPEVKFNWYVDGVEVHNAKTKPREEQYNSTYRVVSVLTVLHQDWLNGKEYKCKVSNKALAAPIEKTISKAKGQPREPQVCTLPPSRDELTKNQVSLSCAVKGFYPSDIAVEWESNGQPENNYKTTPPVLDSDGSFFLVSKLTVDKSRWQQGNVFSCSVMHEALHNHYTQKSLSLSPGK
chain 2: not shown
In the case of B4, the “EC50 (nM), Killing HL60 (T-cell mediated killing of the CLL1-positive cancer cell line)” value (“EC50 (nM), Killing HL60” for short) [1] is reported as 0.2 nM and the “EC50 (nM), NFAT U937 (T-cell activation, Jurkat NFAT luciferase reporter assay)” value (“EC50 (nM), NFAT U937” below) [1] is reported as 0.63 nM.

B5: CD3 × CLL1_08 (bispecific antibody)
chain 1: B4 chain 1
chain 2: QVQLVESGGGLVQPGGSLRLSCAASGFTFSSYWMSWVRQAPGKGLEWVANINEDGSAKFYVDSVKGRFTISRDNAKNSLYLQMNSLRAEDTAVYFCARDLRSGRYWGQGTLVTVSSGGGGSGGGGSGGGGSEIVLTQSPGTLSLSPGGRATLSCRASQSISGSFLAWYQQKPGQAPRLLIYGASSRATGIPDRFSGSGSGTDFTLTISRLEPEDFAVYYCQQYGSSPPTFGLGTKLEIKGGGGSGSDKTHTCPPCPAPELLGGPSVFLFPPKPKDTLMISRTPEVTCVVVAVSHEDPEVKFNWYVDGVEVHNAKTKPREEQYNSTYRVVSVLTVLHQDWLNGKEYKCKVSNKALAAPIEKTISKAKGQPREPQVYTLPPCRDELTKNQVSLWCLVKGFYPSDIAVEWESNGQPENNYKTTPPVLDSDGSFFLYSKLTVDKSRWQQGNVFSCSVMHEALHNHYTQKSLSLSPGK
For B5, the “EC50 (nM), Killing HL60” value [1] was 0.31 nM and the “EC50 (nM), NFAT U937” value [1] was 1.26 nM.

B6: CD3 × CLL1_10 (bispecific antibody)
chain 1: B4 chain 1
chain 2: QVQLVQSGGGLVQPGGSLRLSCAASGFTFSSYSMNWVRQAPGKGLEWVSYISSSSSTIYYADSVKGRFTISRDNAKNSLYLQMNSLRAEDTAVYYCARDLSVRAIDAFDIWGQGTMVTVSSGGGGSGGGGSGGGGSGGGGSDIVLTQSPSSLSASVGDRVTITCQASQDISNYLNWYQQKPGKAPKLLIYDASNLETGVPSRFSGSGSGTDFTFTISSLQPEDFATYYCQQAYSTPFTFGPGTKVEIKGGGGSGSDKTHTCPPCPAPELLGGPSVFLFPPKPKDTLMISRTPEVTCVVVAVSHEDPEVKFNWYVDGVEVHNAKTKPREEQYNSTYRVVSVLTVLHQDWLNGKEYKCKVSNKALAAPIEKTISKAKGQPREPQVYTLPPCRDELTKNQVSLWCLVKGFYPSDIAVEWESNGQPENNYKTTPPVLDSDGSFFLYSKLTVDKSRWQQGNVFSCSVMHEALHNHYTQKSLSLSPGK
With B6 the “EC50 (nM), Killing HL60” value [1] was 0.27 nM and the “EC50 (nM), NFAT U937” value [1] was 0.85 nM.

B7: CLL-1-1 (scFv)
scFv: EVQLQQSGAEVKKPGSSVKVSCKASGGTFSSYAISWVRQAPGQGLEWMGGIIPIFGTANYAQKFQGRVTITADESTSTAYMELSSLRSEDTAVYYCARDLEMATIMGGYWGQGTLVTVSSGGGGSGGGGSGGGGSQSALTQPASVSGSPGQSITISCTGTSSDVGGYNYVSWYQQHPGKAPKLMIYDVSNRPSGVSNRFSGSKSGNTASLTISGLQAEDEADYYCSSYTSSSTLDVVFGGGTKLTVL
notes: Human scFv from phage display (VH-linker-VL); For Biacore it was made as soluble scFv in HEK293F cells and purified on Ni-NTA beads; a tag is implied but not described; also called 139115
B7: binds (human CLL-1).

B8: CLL-1-9 (scFv)
scFv: QVQLVQSGAEVKEPGASVKVSCKAPANTFSDHVMHWVRQAPGQRFEWMGYIHAANGGTHYSQKFQDRVTITRDTSANTVYMDLSSLRSEDTAVYYCARGGYNSDAFDIWGQGTMVTVSSGGGGSGGGGSGGGGSGGGGSDIVMTQSPSSVSASVGDRVTITCRASQDISSWLAWYQQKPGKAPKLLIYAASSLQSGVPSRFNGSGSGTDFTLTISSLQPEDFATYYCQQSYSTPLTFGGGTKVEIK
notes: Soluble scFv from HEK293F cells, purified on Ni-NTA; a tag is implied but not described; also called 146259
B8 gave a Kd (human CLL-1 Fc) of 9.1 nM, a koff (human CLL-1 Fc) of 0.00128 s⁻¹ and a kon (human CLL-1 Fc) of 141000 M⁻¹ s⁻¹.
